Assay results as given in publication PMC11456856.

Molecular target: human FcRider (afucosylated two-unit tandem hIgG1 Fc joined by the trimerization sequence Foldon)
Assay: native gel or EMSA; blue native PAGE, 1.5 h at 150 V in NativePAGE running buffer; hFcRider purified by Protein A column; monomer ~65 kDa in reducing SDS-PAGE

With “human FcRider (afucosylated two-unit tandem hIgG1 Fc joined by the trimerization sequence Foldon)” as the substance, how does the stoichiometry N read?
The stoichiometry N was 6.
